Experimental findings from paper PMC2749821 are described below.

The target of assay [1] is T1, bone morphogenetic protein 7 (BMP7), human (human), P18075.
T1 chain: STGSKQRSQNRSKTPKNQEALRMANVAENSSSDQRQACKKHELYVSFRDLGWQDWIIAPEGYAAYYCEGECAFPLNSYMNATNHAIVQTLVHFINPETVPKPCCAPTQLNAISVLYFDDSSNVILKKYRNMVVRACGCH
In words: SPR; Biacore 2000; receptor ectodomains as analyte over biotinylated ligands on streptavidin-coated CM5 chips; HBS500, 25°C, 10 μl/min; apparent affinities, 1:1 interaction. The settings on record: remark: other sources report otherwise. For orientation: SPR reads the build-up and loss of mass on a sensor chip optically.

The target in assay [2] is preformed complex of BMP7 with immobilized BMPR-IB ectodomain (human | mouse) (UniProt P18075). In words: SPR; ternary complexes by coinjection: 100 nM ligand perfused 2 min over the immobilized type I receptor ectodomain, then 100 nM ligand plus 0 to 64 μM soluble type II receptor ectodomain; HBS500, 25°C; equilibrium dose response.
In assay [3] the target is preformed complex of GDF5 with an immobilized type I receptor ectodomain (BMPR-IA or BMPR-IB) (UniProt P43026). Described as above.
For assay [4], the target named is preformed complex of BMP2 with immobilized BMPR-IA ectodomain (human) (UniProt P12643). The description is as above.
Another assay addresses activin A, human (human) (UniProt P08476). In words: SPR; Biacore 2000; receptor ectodomains as analyte over biotinylated ligands on streptavidin-coated CM5 chips; HBS500, 25°C, 10 μl/min; apparent affinities, 1:1 interaction.
In assay [5] the target is T2, activin receptor type I (ActR-I) ectodomain, human (human), Q04771.
T2 chain: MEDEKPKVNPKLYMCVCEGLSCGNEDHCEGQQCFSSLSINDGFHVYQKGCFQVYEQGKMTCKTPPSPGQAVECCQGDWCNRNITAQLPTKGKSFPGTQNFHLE
In words: SPR; Biacore 2000; ligands as analyte over biotinylated receptor ectodomains (about 200 RU) on streptavidin-coated CM5 chips; HBS500 (10 mM HEPES pH 7.4, 500 mM NaCl, 3.4 mM EDTA, 0.005% P20), 25°C, 10 μl/min; apparent affinities, 1:2 interaction with avidity. The settings on record: remark: other sources report otherwise.

B1: activin receptor type I (ActR-I) ectodomain, human, Q04771 21-123 (receptor)
chain: T2 chain
modifications: here or on the partner: N-biotinylated (sulfo-NHS-LC-biotin) where immobilised; biotin (sulfo-NHS-LC-biotin) where immobilised
For B1, the Kd in assay [1] is 58 µM.

B2: BMP receptor II (BMPR-II) ectodomain, human (receptor)
chain: RLCAFKDPYQQDLGIGESRISHENGTILCSKGSTCYGLWEKSKGDINLVKQGCWSHIGDPQECHYEECVVTTTPPSIQNGTYRFCCCSTDLCNVNFTENFPPPDTTPLSPPHSFNRDET
modifications: N-biotinylated (sulfo-NHS-LC-biotin) where immobilised
What is called koff is the rate constant with which the complex falls apart. The kon is the second-order rate constant of association. Take B2: the Kd turned out to be 16 µM in assay [2]; 32 µM in assay [3]; 22 µM in assay [4]; 0.89 µM with activin A, human (human). For the same molecule, the koff with activin A, human (human) is 0.076 s⁻¹. Besides, the kon in the assay with activin A, human (human) stood at 100000 M⁻¹ s⁻¹.

B3: bone morphogenetic protein 7 (BMP7), human, P18075 293-431 (ligand)
chain: T1 chain
modifications: here or on the partner: biotin (sulfo-NHS-LC-biotin) where immobilised; N-biotinylated (sulfo-NHS-LC-biotin) where immobilised
B3: in assay [5], the KD (eq) was > 0.5 µM and the Kd is > 0.5 µM.
